Reference: paper PMC9482650, “Quantitative fragmentomics allow affinity mapping of interactomes” (Nature Communications, 2022)
Changes are numbered by the printed parent chain.

T1: GRIP1_5, Q9Y3R0
T1 sequence (Q9Y3R0 568-668, limits assumed, looked up): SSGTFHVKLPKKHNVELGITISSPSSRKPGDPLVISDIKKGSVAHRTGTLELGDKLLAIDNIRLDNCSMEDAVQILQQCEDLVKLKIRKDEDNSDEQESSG

T2: LIN7B, Q9HAP6
T2 sequence (Q9HAP6 88-185, limits assumed, looked up): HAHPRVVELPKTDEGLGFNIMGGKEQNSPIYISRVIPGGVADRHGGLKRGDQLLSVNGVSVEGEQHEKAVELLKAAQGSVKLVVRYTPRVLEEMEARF

T3: MPP7, Q5T2T1
T3 sequence (Q5T2T1 134-230, limits assumed, looked up): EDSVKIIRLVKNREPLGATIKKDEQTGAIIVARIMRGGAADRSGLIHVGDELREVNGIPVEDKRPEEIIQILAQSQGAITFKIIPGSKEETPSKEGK

T4: TX1BP3, O14907
T4 sequence (O14907 10-122, limits assumed, looked up): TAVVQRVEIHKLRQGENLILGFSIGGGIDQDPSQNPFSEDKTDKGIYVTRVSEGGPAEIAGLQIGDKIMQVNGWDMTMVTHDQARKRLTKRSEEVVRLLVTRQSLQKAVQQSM

T5: ARHGAP21, Q5T5U3
T5 sequence (Q5T5U3 45-169, limits assumed, looked up): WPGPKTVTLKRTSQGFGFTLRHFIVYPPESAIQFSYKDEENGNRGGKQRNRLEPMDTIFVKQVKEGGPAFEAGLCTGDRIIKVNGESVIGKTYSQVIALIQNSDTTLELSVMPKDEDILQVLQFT

T6: APBA2_2, Q99767
T6 sequence (Q99767 654-744, limits assumed, looked up): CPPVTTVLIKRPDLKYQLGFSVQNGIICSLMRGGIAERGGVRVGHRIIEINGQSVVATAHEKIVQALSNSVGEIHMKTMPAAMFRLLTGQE

T7: MPDZ_5, O75970
T7 sequence (O75970 695-796, limits assumed, looked up): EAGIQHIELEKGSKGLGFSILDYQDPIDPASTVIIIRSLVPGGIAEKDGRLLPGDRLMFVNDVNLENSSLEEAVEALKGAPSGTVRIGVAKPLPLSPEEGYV

T8: NHERF3_4, Q5T2W1
T8 sequence (Q5T2W1 373-468, limits assumed, looked up): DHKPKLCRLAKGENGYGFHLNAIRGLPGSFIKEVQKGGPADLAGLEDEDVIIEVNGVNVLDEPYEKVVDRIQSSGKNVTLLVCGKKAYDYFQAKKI

T9: APBA1_2, Q02410
T9 sequence (Q02410 742-832, limits assumed, looked up): T6 sequence (Q99767 654-744, limits assumed, looked up) with K10R, K15R, A59P, Q65H, A66I, S70A, F84Y, G89A

T10: MPP2, Q14168
T10 sequence (Q14168 180-250, limits assumed, looked up): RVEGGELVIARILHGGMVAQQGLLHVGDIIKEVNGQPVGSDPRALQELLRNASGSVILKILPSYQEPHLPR

T11: SIPA1L2, Q9P2F8
T11 sequence (Q9P2F8 945-1036, limits assumed, looked up): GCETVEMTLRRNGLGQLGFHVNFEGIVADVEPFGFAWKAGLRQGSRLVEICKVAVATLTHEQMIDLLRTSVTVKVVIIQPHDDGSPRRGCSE

T12: PDZD7_3, Q9H5P4
T12 sequence (Q9H5P4 857-944, limits assumed, looked up): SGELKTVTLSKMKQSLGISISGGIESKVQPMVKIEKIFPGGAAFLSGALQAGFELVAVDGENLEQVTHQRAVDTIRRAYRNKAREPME

T13: NHERF3_3, Q5T2W1
T13 sequence (Q5T2W1 238-333, limits assumed, looked up): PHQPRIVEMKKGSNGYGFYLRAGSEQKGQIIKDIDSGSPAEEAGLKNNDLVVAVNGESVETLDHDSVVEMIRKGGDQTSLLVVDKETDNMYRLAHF

T14: SNTB1, Q13884
T14 sequence (Q13884 107-205, limits assumed, looked up): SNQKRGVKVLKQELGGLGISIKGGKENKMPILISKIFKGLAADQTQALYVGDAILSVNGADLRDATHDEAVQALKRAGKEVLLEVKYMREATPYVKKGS


Biological target: T1, GRIP1_5, Q9Y3R0
Test: holdup assay
Set-up: key: below the threshold = too weak to quantify, mostly under pKd 3.1 to 4
Conditions: plain residues with an end cap or a label only (N-terminal biotin on a linker: ado-ado)

Row | Binder | pKd
1 | IDESKKEWLI [CNTNAP2, Q9UHC6] | below the threshold
2 | SRSVVESDEL [MYPN, Q86TC9] | below the threshold

Biological target: T2, LIN7B, Q9HAP6
Test: holdup assay
Set-up: key: below the threshold = too weak to quantify, mostly under pKd 3.1 to 4
Conditions: plain residues with an end cap or a label only (N-terminal biotin on a linker: ado-ado)

Row | Binder | pKd
3 | IDESKKEWLI [CNTNAP2, Q9UHC6] | 3.75
4 | SRSVVESDEL [MYPN, Q86TC9] | below the threshold

Biological target: FRMPD2_2, Q68DX3
Sequence (Q68DX3 944-1038): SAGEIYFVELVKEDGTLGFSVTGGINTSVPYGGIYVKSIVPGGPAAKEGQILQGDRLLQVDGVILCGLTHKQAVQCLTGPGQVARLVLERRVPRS
Test: holdup assay
Set-up: key: below the threshold = too weak to quantify, mostly under pKd 3.1 to 4
Conditions: plain residues with an end cap or a label only (N-terminal biotin on a linker: ado-ado)

Row | Binder | pKd
5 | IDESKKEWLI [CNTNAP2, Q9UHC6] | below the threshold
6 | SRSVVESDEL [MYPN, Q86TC9] | below the threshold

Biological target: PTPN3, P26045
Sequence (P26045 505-587): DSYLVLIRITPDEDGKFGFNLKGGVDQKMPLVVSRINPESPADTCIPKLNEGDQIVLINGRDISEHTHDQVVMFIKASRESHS
Test: holdup assay
Set-up: key: below the threshold = too weak to quantify, mostly under pKd 3.1 to 4
Conditions: plain residues with an end cap or a label only (N-terminal biotin on a linker: ado-ado)

Row | Binder | pKd
7 | IDESKKEWLI [CNTNAP2, Q9UHC6] | 4.07
8 | SRSVVESDEL [MYPN, Q86TC9] | 3.99

Biological target: T3, MPP7, Q5T2T1
Test: holdup assay
Set-up: key: below the threshold = too weak to quantify, mostly under pKd 3.1 to 4
Conditions: plain residues with an end cap or a label only (N-terminal biotin on a linker: ado-ado)

Row | Binder | pKd
9 | IDESKKEWLI [CNTNAP2, Q9UHC6] | 5.46
10 | SRSVVESDEL [MYPN, Q86TC9] | below the threshold

Biological target: DLG4_1, P78352
Sequence (P78352 62-152): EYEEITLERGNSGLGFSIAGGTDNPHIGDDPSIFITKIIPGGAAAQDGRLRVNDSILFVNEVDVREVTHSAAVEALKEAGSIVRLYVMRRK
Test: holdup assay
Set-up: key: below the threshold = too weak to quantify, mostly under pKd 3.1 to 4
Conditions: plain residues with an end cap or a label only (N-terminal biotin on a linker: ado-ado)

Row | Binder | pKd
11 | IDESKKEWLI [CNTNAP2, Q9UHC6] | below the threshold
12 | SRSVVESDEL [MYPN, Q86TC9] | below the threshold

Biological target: GRIP2_4, Q9C0E4
Sequence (Q9C0E4 446-548): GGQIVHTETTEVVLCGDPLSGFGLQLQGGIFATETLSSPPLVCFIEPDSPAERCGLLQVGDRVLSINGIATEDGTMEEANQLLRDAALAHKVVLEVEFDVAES
Test: holdup assay
Set-up: key: below the threshold = too weak to quantify, mostly under pKd 3.1 to 4
Conditions: plain residues with an end cap or a label only (N-terminal biotin on a linker: ado-ado)

Row | Binder | pKd
13 | IDESKKEWLI [CNTNAP2, Q9UHC6] | below the threshold
14 | SRSVVESDEL [MYPN, Q86TC9] | below the threshold

Biological target: T4, TX1BP3, O14907
Test: holdup assay
Set-up: key: below the threshold = too weak to quantify, mostly under pKd 3.1 to 4
Conditions: plain residues with an end cap or a label only (N-terminal biotin on a linker: ado-ado)

Row | Binder | pKd
15 | IDESKKEWLI [CNTNAP2, Q9UHC6] | below the threshold
16 | SRSVVESDEL [MYPN, Q86TC9] | below the threshold

Biological target: T5, ARHGAP21, Q5T5U3
Test: holdup assay
Set-up: key: below the threshold = too weak to quantify, mostly under pKd 3.1 to 4
Conditions: plain residues with an end cap or a label only (N-terminal biotin on a linker: ado-ado)

Row | Binder | pKd
17 | IDESKKEWLI [CNTNAP2, Q9UHC6] | below the threshold
18 | SRSVVESDEL [MYPN, Q86TC9] | 3.51

Biological target: T6, APBA2_2, Q99767
Test: holdup assay
Set-up: key: below the threshold = too weak to quantify, mostly under pKd 3.1 to 4
Conditions: plain residues with an end cap or a label only (N-terminal biotin on a linker: ado-ado)

Row | Binder | pKd
19 | IDESKKEWLI [CNTNAP2, Q9UHC6] | below the threshold
20 | SRSVVESDEL [MYPN, Q86TC9] | below the threshold

Biological target: T7, MPDZ_5, O75970
Test: holdup assay
Set-up: key: below the threshold = too weak to quantify, mostly under pKd 3.1 to 4
Conditions: plain residues with an end cap or a label only (N-terminal biotin on a linker: ado-ado)

Row | Binder | pKd
21 | IDESKKEWLI [CNTNAP2, Q9UHC6] | below the threshold
22 | SRSVVESDEL [MYPN, Q86TC9] | below the threshold

Biological target: T8, NHERF3_4, Q5T2W1
Test: holdup assay
Set-up: key: below the threshold = too weak to quantify, mostly under pKd 3.1 to 4
Conditions: plain residues with an end cap or a label only (N-terminal biotin on a linker: ado-ado)

Row | Binder | pKd
23 | IDESKKEWLI [CNTNAP2, Q9UHC6] | below the threshold
24 | SRSVVESDEL [MYPN, Q86TC9] | below the threshold

Biological target: T9, APBA1_2, Q02410
Test: holdup assay
Set-up: key: below the threshold = too weak to quantify, mostly under pKd 3.1 to 4
Conditions: plain residues with an end cap or a label only (N-terminal biotin on a linker: ado-ado)

Row | Binder | pKd
25 | IDESKKEWLI [CNTNAP2, Q9UHC6] | below the threshold
26 | SRSVVESDEL [MYPN, Q86TC9] | below the threshold

Biological target: MAGI2_6, Q86UL8
Sequence (Q86UL8 1141-1229): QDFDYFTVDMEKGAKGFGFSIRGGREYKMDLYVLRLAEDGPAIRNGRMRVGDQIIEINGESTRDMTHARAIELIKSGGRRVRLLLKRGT
Test: holdup assay
Set-up: key: below the threshold = too weak to quantify, mostly under pKd 3.1 to 4
Conditions: plain residues with an end cap or a label only (N-terminal biotin on a linker: ado-ado)

Row | Binder | pKd
27 | IDESKKEWLI [CNTNAP2, Q9UHC6] | below the threshold
28 | SRSVVESDEL [MYPN, Q86TC9] | below the threshold

Biological target: PDLIM1, O00151
Sequence (O00151 1-87): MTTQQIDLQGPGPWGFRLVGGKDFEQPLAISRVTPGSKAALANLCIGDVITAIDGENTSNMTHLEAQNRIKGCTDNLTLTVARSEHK
Test: holdup assay
Set-up: key: below the threshold = too weak to quantify, mostly under pKd 3.1 to 4
Conditions: plain residues with an end cap or a label only (N-terminal biotin on a linker: ado-ado)

Row | Binder | pKd
29 | IDESKKEWLI [CNTNAP2, Q9UHC6] | below the threshold
30 | SRSVVESDEL [MYPN, Q86TC9] | 5.11

Biological target: T10, MPP2, Q14168
Test: holdup assay
Set-up: key: below the threshold = too weak to quantify, mostly under pKd 3.1 to 4
Conditions: plain residues with an end cap or a label only (N-terminal biotin on a linker: ado-ado)

Row | Binder | pKd
31 | IDESKKEWLI [CNTNAP2, Q9UHC6] | 4.78
32 | SRSVVESDEL [MYPN, Q86TC9] | below the threshold

Biological target: T11, SIPA1L2, Q9P2F8
Test: holdup assay
Set-up: key: below the threshold = too weak to quantify, mostly under pKd 3.1 to 4
Conditions: plain residues with an end cap or a label only (N-terminal biotin on a linker: ado-ado)

Row | Binder | pKd
33 | IDESKKEWLI [CNTNAP2, Q9UHC6] | below the threshold
34 | SRSVVESDEL [MYPN, Q86TC9] | below the threshold

Biological target: MAST2, Q6P0Q8
Sequence (Q6P0Q8 1099-1202): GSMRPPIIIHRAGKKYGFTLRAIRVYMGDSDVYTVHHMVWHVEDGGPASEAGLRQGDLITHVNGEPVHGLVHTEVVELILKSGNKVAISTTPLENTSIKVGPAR
Test: holdup assay
Set-up: key: below the threshold = too weak to quantify, mostly under pKd 3.1 to 4
Conditions: plain residues with an end cap or a label only (N-terminal biotin on a linker: ado-ado)

Row | Binder | pKd
35 | IDESKKEWLI [CNTNAP2, Q9UHC6] | below the threshold
36 | SRSVVESDEL [MYPN, Q86TC9] | 4.46

Biological target: T12, PDZD7_3, Q9H5P4
Test: holdup assay
Set-up: key: below the threshold = too weak to quantify, mostly under pKd 3.1 to 4
Conditions: plain residues with an end cap or a label only (N-terminal biotin on a linker: ado-ado)

Row | Binder | pKd
37 | IDESKKEWLI [CNTNAP2, Q9UHC6] | below the threshold
38 | SRSVVESDEL [MYPN, Q86TC9] | 3.75

Biological target: CASK, O14936
Sequence (O14936 487-570): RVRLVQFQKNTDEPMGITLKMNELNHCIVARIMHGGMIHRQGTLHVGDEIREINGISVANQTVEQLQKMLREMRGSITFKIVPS
Test: holdup assay
Set-up: key: below the threshold = too weak to quantify, mostly under pKd 3.1 to 4
Conditions: plain residues with an end cap or a label only (N-terminal biotin on a linker: ado-ado)

Row | Binder | pKd
39 | IDESKKEWLI [CNTNAP2, Q9UHC6] | below the threshold
40 | SRSVVESDEL [MYPN, Q86TC9] | below the threshold

Biological target: Inadl_4, Q8NI35
Sequence (Q8NI35 547-651): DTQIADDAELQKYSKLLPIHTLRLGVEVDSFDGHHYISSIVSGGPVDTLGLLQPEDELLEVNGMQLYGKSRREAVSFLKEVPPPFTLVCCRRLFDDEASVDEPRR
Test: holdup assay
Set-up: key: below the threshold = too weak to quantify, mostly under pKd 3.1 to 4
Conditions: plain residues with an end cap or a label only (N-terminal biotin on a linker: ado-ado)

Row | Binder | pKd
41 | IDESKKEWLI [CNTNAP2, Q9UHC6] | below the threshold
42 | SRSVVESDEL [MYPN, Q86TC9] | below the threshold

Biological target: ARHGEF12, Q9NZN5-2
Sequence (Q9NZN5 other isoform, or with tags, fused parts or gaps): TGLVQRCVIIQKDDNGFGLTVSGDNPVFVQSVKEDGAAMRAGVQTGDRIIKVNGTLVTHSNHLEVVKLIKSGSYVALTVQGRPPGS
Test: holdup assay
Set-up: key: below the threshold = too weak to quantify, mostly under pKd 3.1 to 4
Conditions: plain residues with an end cap or a label only (N-terminal biotin on a linker: ado-ado)

Row | Binder | pKd
43 | IDESKKEWLI [CNTNAP2, Q9UHC6] | below the threshold
44 | SRSVVESDEL [MYPN, Q86TC9] | 3.58

Biological target: T13, NHERF3_3, Q5T2W1
Test: holdup assay
Set-up: key: below the threshold = too weak to quantify, mostly under pKd 3.1 to 4
Conditions: plain residues with an end cap or a label only (N-terminal biotin on a linker: ado-ado)

Row | Binder | pKd
45 | IDESKKEWLI [CNTNAP2, Q9UHC6] | below the threshold
46 | SRSVVESDEL [MYPN, Q86TC9] | below the threshold

Biological target: T14, SNTB1, Q13884
Test: holdup assay
Set-up: key: below the threshold = too weak to quantify, mostly under pKd 3.1 to 4
Conditions: plain residues with an end cap or a label only (N-terminal biotin on a linker: ado-ado)

Row | Binder | pKd
47 | IDESKKEWLI [CNTNAP2, Q9UHC6] | below the threshold
48 | SRSVVESDEL [MYPN, Q86TC9] | below the threshold
